US20150329824A1 (NATIONAL CHENG KUNG UNIVERSITY, published 2015)
No end group written: not given here.

Target: T1, membrane hyaluronidase Hyal-2 on spleen cells of NOD-SCID mice (mouse (spleen cells of NOD-SCID mice), UniProt O35632 21-448)
T1 construct: whole, on cells; Endogenous protein on mouse spleen cells, detected with an antibody against Hyal-2; also called hyaluronidase-2
T1 sequence (looked up): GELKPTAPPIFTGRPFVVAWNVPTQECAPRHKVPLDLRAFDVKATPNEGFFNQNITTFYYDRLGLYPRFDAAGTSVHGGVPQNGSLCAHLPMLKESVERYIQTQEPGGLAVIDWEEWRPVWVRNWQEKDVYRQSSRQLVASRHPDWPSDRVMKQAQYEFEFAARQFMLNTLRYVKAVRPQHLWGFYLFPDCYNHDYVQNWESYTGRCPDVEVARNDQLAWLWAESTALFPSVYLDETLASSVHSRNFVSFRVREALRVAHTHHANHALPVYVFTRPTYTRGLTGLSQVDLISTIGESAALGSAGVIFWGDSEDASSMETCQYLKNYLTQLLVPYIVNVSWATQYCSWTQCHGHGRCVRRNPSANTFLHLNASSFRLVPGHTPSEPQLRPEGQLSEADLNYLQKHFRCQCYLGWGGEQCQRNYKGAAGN
Test: epifluorescence and confocal microscopy of NOD-SCID spleen cells stained with TMR-Zfra1-31 and Hyal-2 antibody
Description: FIG. 2 includes photos showing the identification of Zfra⁺ Hyal-2⁺ spleen cells. A and B: Spleen cells of NOD-SCID mice were isolated and stained with synthesized peptide TMR-Zfra₁₋₃₁ and Hyal-2 (green fluorescence) antibody for 30 minutes on ice, and then fixed with 4% formaldehyde. Zfra bound to membrane hyaluronidase Hyal-2, as determined by epifluorescence and confocal microscopy.
In this example, spleen cells were isolated from immune deficient NOD-SCID mice, which are deficient in T and B lymphocytes and NK cells. The isolated spleen cells were stained with antibody against Hyal-2 (green) and TMR-Zfra (Zfra₁₋₃₁ labeled with red fluorescent tetramethylrodamine) for 30 minutes on ice, and then fixed with 4% formaldehyde (FIG. 2). […] These Hyal-2⁺ Zfra⁺ positive cells are interchangeably referred to as “Z cells,” for cells interacting with Zfra.

- binding result: binds
B1: TMR-Zfra1-31 (Zfra1-31 labeled with red fluorescent tetramethylrodamine) (peptide)
peptide: MSSRRSSSCKYCEQDFRAHTQKNAATPFLAN
modifications: cysteine pairing not given here; also: tetramethylrhodamine (TMR) label, position not given here
notes: Synthesized full-length Zfra peptide with a TMR label, used to stain spleen cells; also called Tetramethylrhodamine-Zfra
